# Patent publication US20240391997A1 (BRIGHTPATH BIOTHERAPEUTICS, published 2024)
# B1: Hu149_83_scFv antibody (scFv, not shown: small tags and cut ends)
# scFv: QVQLVQSGAEVKKPGASVKVSCKASGYTFTDYYMDWVRQAPGQGLEWLGYIYPNKGGTSYNQKFKGRVTMTTDKSTSTAYMELRSLRSDDTAVYYCARSGYGNYYTMDYWGQGTTVTVSSGGGGSGGGGSGGGGSGGGGSDIVMTQSQKFMSTSVGDRVSITCKASQSVGNNVAWYQQKPGQSPKLLIYYASNRYTGVPDRFTGSGSGTDFTLTISNMQSEDLADYFCQQHYSSPSTFGGGTKLEIK
# notes: Secreted from E. coli with an N-terminal pelB leader (left out)
# B2: Ch003-LA antibody (antibody, V domains shown)
# VH: EVMLMESGGGLVKLGGSLKLSCAASGFTFSSYYMSWVRQTPEKRLEWVATISNSGGSIYYLDSVKDRFTISRDNAKNTLYLQMSSLNSEDTAVYYCARDPYYSNYVPMDYWGQGTSVTVSS
# VL: SIVMTQTPKFMSTSVGDRVSVTCKASQYVDTYVAWYQQKPGQSPKPLIYSASTRHTGVPARFTGSGSGTDFTLTISNVQSEDLAEYFCAQYSSSPLTFGAGTKLELK
# notes: IgG1_LALA type antibody (L234A and L235A in the Fc region of IgG1)
# Legend:
# [1] = molecular target: T1, human Tim-3 IgV domain (aa. 22-130) (human, UniProt Q8TDQ0 22-130); experiment: gel filtration of the complex and X-ray crystallography, 2.11 angstrom
# T1 construct: range 22-130
# [2] = molecular target: T2, human Tim-3 expressed on cells (Jurkat cells stably expressing, Expi293 cells transiently expressing, … (human, UniProt Q8TDQ0 22-301)); experiment: flow cytometry on activated human CD4 T cells, KD from MFI curve
# T2 construct: whole, on cells; One entry for all cell-surface forms; the cell type is named under assay; also called human Tim-3 expressed on the cell membrane
# [3] = molecular target: T2, human Tim-3 expressed on cells (Jurkat …); experiment: flow cytometry on activated human CD8 T cells, KD from MFI curve
# [4] = molecular target: T2, human Tim-3 expressed on cells (Jurkat …); experiment: flow cytometry on Jurkat cells stably expressing human Tim-3, KD from MFI curve
# [5] = molecular target: T2, human Tim-3 expressed on cells (Jurkat …); experiment: flow cytometry on Expi293 cells transiently expressing human Tim-3, KD from MFI curve
# [6] = molecular target: T3, biotinylated human Tim-3-Fc antigen (in-house preparation) (human, biotinylated); experiment: competition flow cytometry, biotinylated Tim-3-Fc premixed with antibody, binding to phosphatidylserine on apoptotic Jurkat cells (ligand not a protein)
# T3 construct: limits of the Tim-3 part not given
# [7] = molecular target: T3, biotinylated human Tim-3-Fc antigen …; experiment: competition ELISA: biotinylated human Tim-3-Fc premixed with the antibody, added to plate-bound human Galectin-9 (blocked ligand); streptavidin-HRP; Binding (%)
binder,measurement,setting,value
B1,binding result,[1],binds
B2,Kd,[2],0.105 nM
same,Kd,[3],0.112 nM
same,Kd,[4],0.0828 nM
same,Kd,[5],0.891 nM
same,IC50,[6],9.91 nM
same,IC50 (read off the curve),[7],~0.5 nM
